Numbering of substitutions follows the chain as printed. In names and notes the source's numbering stands. Read-outs that look alike come from different tables or passages of the source.
T1: 5T4 (on 5T4-expressing MDA-MB-468 cells) (human, UniProt Q13641 32-420)
T1 sequence (looked up): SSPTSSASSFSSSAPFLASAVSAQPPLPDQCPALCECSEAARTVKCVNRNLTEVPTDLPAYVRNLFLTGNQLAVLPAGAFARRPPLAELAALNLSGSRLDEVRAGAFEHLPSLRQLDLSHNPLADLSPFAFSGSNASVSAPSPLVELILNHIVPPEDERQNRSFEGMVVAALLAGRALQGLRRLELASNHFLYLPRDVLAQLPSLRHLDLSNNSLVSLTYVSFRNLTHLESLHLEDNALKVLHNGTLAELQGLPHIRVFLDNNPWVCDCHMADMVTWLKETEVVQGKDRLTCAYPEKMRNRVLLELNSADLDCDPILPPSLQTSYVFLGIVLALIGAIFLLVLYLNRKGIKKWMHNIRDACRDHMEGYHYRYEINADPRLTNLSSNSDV

B1: H8-HC40, engineered cysteine anti-5T4 (HC S40C) H8 antibody conjugated to vc-seco-DUBA (antibody, human IgG1, kappa, V domains shown)
VH: QVQLVQSGAEVKKPGASVKVSCKASGYSFTGYYMHWVKQCPGQGLEWIGRINPNNGVTLYNQKFKDRVTMTRDTSISTAYMELSRLRSDDTAVYYCARSTMITNYVMDYWGQGTLVTVSS
VL: DIVMTQSPDSLAVSLGERATINCKASQSVSNDVAWYQQKPGQSPKLLISYTSSRYAGVPDRFSGSGSGTDFTLTISSLQAEDVAVYFCQQDYNSPPTFGGGTKLEIKR
modifications: vc-seco-DUBA linker drug on engineered Cys 40; average DAR 1.7
B2: H8-HC41, engineered cysteine anti-5T4 (VH P41C) H8 antibody conjugated to vc-seco-DUBA (antibody, human IgG1, kappa, V domains shown)
VH: B1 VH with C40S, P41C
VL: B1 VL
modifications: vc-seco-DUBA linker drug on engineered Cys 41; average DAR 1.7
B3: wild-type H8 antibody (anti-5T4) (antibody, human IgG1, kappa, V domains shown)
VH: B1 VH with C40S
VL: B1 VL
notes: Naked antibody, human IgG1 kappa
B4: ADC-HC41 (SYD1091), engineered cysteine anti-PSMA (VH S41C) antibody conjugated to vc-seco-DUBA (antibody, human IgG1, kappa, V domains shown)
VH: EVQLVQSGAEVKKPGASVKISCKTSGYTFTEYTIHWVKQACGKGLEWIGNINPNNGGTTYNQKFEDRATLTVDKSTSTAYMELSSLRSEDTAVYYCAAGWNFDYWGQGTTVTVSS
VL: DIVMTQSPSSLSASVGDRVTITCKASQDVGTAVDWYQQKPGKAPKLLIYWASTRHTGVPDRFTGSGSGTDFTLTISSLQPEDFADYFCQQYNSYPLTFGGGTKLEIKR
modifications: vc-seco-DUBA linker drug on engineered Cys 41 (Kabat numbering); average DAR 1.7
B5: ADC-HC41 (vc-MMAE), anti-PSMA antibody (HC S41C) conjugated to vc-MMAE (antibody, human IgG1, kappa, V domains shown)
VH: B4 VH
VL: B4 VL
modifications: vc-MMAE linker drug on engineered Cys 41 (Kabat numbering); average DAR 1.8

Experiments:
[1] = target: T1, 5T4 (on 5T4-expressing MDA-MB-468 cells); assay: cell-based or functional assay
[2] = target: T1, 5T4 (on 5T4-expressing MDA-MB-468 cells); assay: cellular binding on 5T4-expressing MDA-MB-468 cells
[3] = target: T2, PSMA (on PSMA-expressing LNCaP-C4.2 cells) (human, UniProt Q04609 1-750); assay: cell-based or functional assay
T2 sequence (Q04609 whole entry): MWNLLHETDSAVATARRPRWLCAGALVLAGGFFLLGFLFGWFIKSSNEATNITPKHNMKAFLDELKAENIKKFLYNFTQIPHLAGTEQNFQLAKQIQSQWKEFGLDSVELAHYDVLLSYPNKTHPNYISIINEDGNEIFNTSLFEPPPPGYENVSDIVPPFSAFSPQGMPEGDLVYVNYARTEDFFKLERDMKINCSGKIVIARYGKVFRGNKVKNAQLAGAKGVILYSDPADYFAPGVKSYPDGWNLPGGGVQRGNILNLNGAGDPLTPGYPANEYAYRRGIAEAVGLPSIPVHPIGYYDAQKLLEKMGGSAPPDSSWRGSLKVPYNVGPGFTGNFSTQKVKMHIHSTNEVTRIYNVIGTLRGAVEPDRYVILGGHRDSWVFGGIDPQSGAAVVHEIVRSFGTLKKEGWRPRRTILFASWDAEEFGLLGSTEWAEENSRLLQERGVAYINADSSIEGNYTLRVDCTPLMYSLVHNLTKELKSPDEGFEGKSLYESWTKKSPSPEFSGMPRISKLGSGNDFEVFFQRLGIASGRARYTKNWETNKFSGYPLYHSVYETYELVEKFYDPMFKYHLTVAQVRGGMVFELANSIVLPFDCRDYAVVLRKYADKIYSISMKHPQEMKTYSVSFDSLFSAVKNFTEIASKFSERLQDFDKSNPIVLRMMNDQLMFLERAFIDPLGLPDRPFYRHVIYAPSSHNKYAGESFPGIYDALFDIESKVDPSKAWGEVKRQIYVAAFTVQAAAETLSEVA

[4] = target: T2, PSMA (on PSMA-expressing LNCaP-C4.2 …); assay: cell-based or functional assay; remark: listed apart in the source

| Binder | % efficacy, in vitro cytotoxicity on MDA-MB-468 at ~100 nM [1] [%] | IC50, in vitro cytotoxicity on 5T4-positive cell line MDA-MB-468 [1] [nM] | also measured |
| --- | --- | --- | --- |
| B1 | 88 | 0.07 | – |
| B2 | 88 | 0.07 | – |
| B3 | – | – | binding result [2]: binds |
| B4 | – | – | IC50, in vitro cytotoxicity on PSMA-positive cell line LNCaP-C4.2 [3]: 0.25 nM |
| B5 | – | – | IC50, in vitro cytotoxicity on PSMA-positive cell line LNCaP-C4.2 [4]: 0.39 nM |
